Molecular target: CCHFV nucleocapsid protein (N protein) (Crimean-Congo hemorrhagic fever virus (strain 10200?)) (UniProt P89522)
Test: filter binding

Sequence of UniProt P89522 (P89522 whole entry): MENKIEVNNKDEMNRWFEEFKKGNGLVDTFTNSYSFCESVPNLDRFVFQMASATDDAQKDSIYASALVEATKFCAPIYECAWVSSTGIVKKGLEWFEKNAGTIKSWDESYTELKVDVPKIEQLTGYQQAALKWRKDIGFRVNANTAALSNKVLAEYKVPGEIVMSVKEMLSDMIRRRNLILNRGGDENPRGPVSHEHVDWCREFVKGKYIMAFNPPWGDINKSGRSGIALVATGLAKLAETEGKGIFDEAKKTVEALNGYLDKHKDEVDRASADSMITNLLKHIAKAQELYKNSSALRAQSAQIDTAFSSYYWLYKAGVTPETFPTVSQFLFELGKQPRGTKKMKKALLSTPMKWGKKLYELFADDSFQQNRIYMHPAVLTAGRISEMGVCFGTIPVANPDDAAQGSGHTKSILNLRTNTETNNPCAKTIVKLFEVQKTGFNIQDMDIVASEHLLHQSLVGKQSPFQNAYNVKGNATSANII

“Luc mRNA-1 (WT S-segment 5' UTR + luciferase ORF + truncated S 3' UTR)” was tested, and the Kd was 42 nM.
